Results from paper PMC3025574 (Nucleic Acids Research, 2010).

Biological target: Escherichia coli DNA gyrase B subunit (GyrB) (Escherichia coli, UniProt P0AES6 1-804)
Experiment: SAXS

binding result: binds
B1: GyrA-ΔCTD (mutant GyrA subunit lacking the CTDs, residues 1–523) (domain or fragment)
chain: MSDLAREITPVNIEEELKSSYLDYAMSVIVGRALPDVRDGLKPVHRRVLYAMNVLGNDWNKAYKKSARVVGDVIGKYHPHGDSAVYDTIVRMAQPFSLRYMLVDGQGNFGSIDGDSAAAMRYTEIRLAKIAHELMADLEKETVDFVDNYDGTEKIPDVMPTKIPNLLVNGSSGIAVGMATNIPPHNLTEVINGCLAYIDDEDISIEGLMEHIPGPDFPTAAIINGRRGIEEAYRTGRGKVYIRARAEVEVDAKTGRETIIVHEIPYQVNKARLIEKIAELVKEKRVEGISALRDESDKDGMRIVIEVKRDAVGEVVLNNLYSQTQLQVSFGINMVALHHGQPKIMNLKDIIAAFVRHRREVVTRRTIFELRKARDRAHILEALAVALANIDPIIELIRHAPTPAEAKTALVANPWQLGNVAAMLERAGDDAARPEWLEPEFGVRDGLYYLTEQQAQAILDLRLQKLTGLEHEKLLDEYKELLDQIAELLRILGSADRLMEVIREELELVREQFGDKRRTEITA
